Assays:
Assay type in all cases: cell-based
HEK cells [1] = test: TC-5619 / acetylcholine dose response and peak current of engineered receptors in HEK cells (FIGS. 5C-5F); settings: for Response to TC-5619 (dose response), compared with CODA71: FIGS. 5C-5E
HEK cells [2] = test: Peak current measurement by manual patch clamp in HEK cells; settings: held at −60 mV
Protocol: Cell culture: HEK 293 cells were routinely subcultured in DMEM with 10% fetal bovine serum (ThermoFisher Scientific). Cells were plated in six-well dishes 24 hours prior to transfection with Fugene 6 (Promega, E2691) and plasmid DNA (total of 1 μg DNA). 24 hours post transfection, cells were replated onto 10 mm PDL and collagen coated coverslips, before being used for patch clamp experiments 24-48 hours later. For dorsal root ganglion neuron experiments, adult rat lumbar ganglia were harvested and dissociated according to standard protocols, cultured on glass coverslips coated with poly-L-lysine and mouse laminin, transduced on DIV1 with ires-GFP-containing lentiviral or AAV6 vectors, and processed for immunocytochemistry on DIV7. For hippocampal neuron experiments, hippocampi were harvested from embryonic day 18 rat pups or postnatal day 0 mouse pups and dissociated according to standard protocols. […]
Whole-cell patch clamp recording protocol: Cells plated on coverslips were visualized at 10× and 40× on an inverted fluorescence microscope (Olympus). […] Traces were either analyzed in Clampfit (Molecular Devices) or using custom Python code. […]
Dose-response experiments: Drug-induced currents were recorded in voltage clamp mode. […]

HEK cells [3] = test: Peak current measurement on IonFlux in HEK cells; settings: held at −60 mV
Protocol: HEK 293 cells were routinely subcultured in DMEM with 10% fetal bovine serum (ThermoFisher Scientific). Cells were plated in 15 cm dishes 24 hours prior to transfection with Fugene 6 (Promega, E2691) and plasmid DNA (total of 20 μg DNA). 24 hours post transfection, cells were lifted with Accutase (Sigma, A6964) then resuspended in serum free media (CHO—S-SFM II, ThermoFisher Scientific 12052 with 25 mM HEPES, ThermoFisher Scientific, 15630080) to rest for 30-90 min before being loaded onto IonFlux (Fluxion Biosciences) for experiments. Recordings were made in extracellular solution (ECS) containing (in mM): 140 sodium chloride (S7653), 4 potassium chloride (P9333), 1 magnesium chloride (M2670), 2 calcium chloride (C3881), 10 HEPES (54457), and 10 D-(+)-glucose (G7528) (pH=7.3 with sodium hydroxide, osmolarity=305-315 mOsm). Intracellular solution (ICS) contains (in mM): 140 cesium chloride (289329), 5 potassium fluoride (60238), 2 Calcium chloride (P9333), 2 magnesium chloride (M2670), 10 HEPES (54457), and 10 EGTA (3777) (pH=7.2 with cesium hydroxide, osmolarity=290-295 mOsm).
Drug-induced currents were recorded in ensemble mode (20 cells are patched per recording channel). Cells were held at −60 mV and current across the membrane was recorded at 1 kHz sampling rate. Drugs tested include acetycholine chloride (A6625) and other synthetic compounds. […]

| Molecule | Peak current when activated by TC-5619, compared with CODA1055 (HEK cells [1]; FIG. 5F) | Response to TC-5619 (dose response), compared with CODA71 (HEK cells [1]) | Peak Current on Manual Patch Clamp in HEK cells (HEK cells [2]) | Peak Current on IonFlux in HEK Cells (HEK cells [3]) | Response to acetylcholine (dose response), compared with CODA71 (HEK cells [1]; FIGS. 5C-5D) |
| --- | --- | --- | --- | --- | --- |
| CODA1316: α7-nAChR(Gly-cys) LBD: GlyRα2 IPD, SEQ ID NO: 65 comprising R101W, Y115E, Y210W, T225I mutations (protein, CHRNA7 (Cys-loop)/GLRA2) MRCSPGGVWLALAASLLHVSLQGEFQRKLYKELVKNYNPLERPVANDSQPLTVYFSLSLLQIMDVDEKNQVLTTNIWLQMSWTDHYLQWNVSEYPGVKTVWFPDGQIWKPDILLENSADERFDATFHTNVLVNSSGHCQYLPPGIFKSSCPMDLKNFPMDVQTCKLKFGSWSYGGWSLDLQMQEADISGYIPNGEWDLVGIPGKRSERFWECCKEPYPDVTFTVIMRRRMGYYLIQMYIPSLLIVILSWVSFWINMDAAPARVALGITTVLTMTTQSSGSRASLPKVSYVKAIDIWMAVCLLFVFAALLEYAAVNFVSRQHKEFLRLRRRQKRQNKEEDVTRESRFNFSGYGMGHCLQVKDGTAVKATPANPLPQPPKDGDAIKKKFVDRAKRIDTISRAAFPLAFLIFNIFYWITYKIIRHEDVHKK | increased peak current | increased response | −2779 picoamps (pA) | −5520.5 picoamps (pA) | – |
| CODA1055: α7-nAChR(Gly-cys) LBD: GlyRα1 IPD, SEQ ID NO: 33 comprising R101W, Y115E, Y210W mutations (protein, synthetic sequence of chimeric LGIC) MRCSPGGVWLALAASLLHVSLQGEFQRKLYKELVKNYNPLERPVANDSQPLTVYFSLSLLQIMDVDEKNQVLTTNIWLQMSWTDHYLQWNVSEYPGVKTVWFPDGQIWKPDILLENSADERFDATFHTNVLVNSSGHCQYLPPGIFKSSCPMDLKNFPMDVQTCKLKFGSWSYGGWSLDLQMQEADISGYIPNGEWDLVGIPGKRSERFWECCKEPYPDVTFTVTMRRRMGYYLIQMYIPSLLIVILSWISFWINMDAAPARVGLGITTVLTMTTQSSGSRASLPKVSYVKAIDIWMAVCLLFVFSALLEYAAVNFVSRQHKELLRFRRKRRHHKSPMLNLFQEDEAGEGRFNFSAYGMGPACLQAKDGISVKGANNSNTTNPPPAPSKSPEEMRKLFIQRAKKIDKISRIGFPMAFLIFNMFYWIIYKIVRREDVHNQ | – | increased response | −2176.6 picoamps (pA) | −5074.3 picoamps (pA) | reduced response |

Source: patent publication US20250163130A1, “LIGAND GATED ION CHANNELS AND METHODS OF USE” (Trames Bio, Inc., priority 2022, published 2025)
